# Laboratory results taken from US11618777B2, “Method of manufacturing membrane protein and utilization thereof” (priority 2015, dated 2023).
# T1: human claudin-4 (residue: 1 to 183) synthesized in a cell-free system (human, UniProt O14493 1-183)
# T1 sequence: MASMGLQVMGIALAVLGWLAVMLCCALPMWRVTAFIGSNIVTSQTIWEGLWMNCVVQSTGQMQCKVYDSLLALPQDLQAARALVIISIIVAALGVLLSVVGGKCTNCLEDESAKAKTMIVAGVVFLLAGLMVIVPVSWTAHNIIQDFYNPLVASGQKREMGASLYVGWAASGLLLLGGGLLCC
# Legend:
# [1] = biological target: C-terminal fragment (C-CPE) of Clostridium perfringens enterotoxin (CPE) (Clostridium perfringens, UniProt P01558); conditions: read-out: KD value
# [2] = biological target: T1, human claudin-4 (residue: 1 to 183) …
# [3] = GlcT enzyme activity (specific activity) of cell-free synthesized human GlcT; conditions: GlcT produced by liposome method with porcine brain lipid mixture
molecule,measurement,setting,value
"human claudin-4: Human claudin-4 (residue 1 to 183), 4-transmembrane tight junction protein produced by the cell-free lipid-detergent method (protein, UniProt O14493 1-183, looked up, fragment) MASMGLQVMGIALAVLGWLAVMLCCALPMWRVTAFIGSNIVTSQTIWEGLWMNCVVQSTGQMQCKVYDSLLALPQDLQAARALVIISIIVAALGVLLSVVGGKCTNCLEDESAKAKTMIVAGVVFLLAGLMVIVPVSWTAHNIIQDFYNPLVASGQKREMGASLYVGWAASGLLLLGGGLLCC",Kd,[1],3.4 nM
GST tag-added C-CPE (ligand) RCVLTVPSTDIEKEILDLAAATERLNLTDALNSNPAGNLYDWRSSNSYPWTQKLNLHLTITATGQKYRILASKIVDFNIYSNNFNNLVKLEQSLGDGVKDHYVDISLDAGQYVLVMKANSSYSGNYPYSILFQKF,Kd,[2],3.4 nM
"GlcT: Human glucosylceramide synthase, estimated 3-transmembrane enzyme, produced in a cell-free system with lipids (protein, UniProt Q16739 1-394, looked up) Ceramide glucosyltransferase: MALLDLALEGMAVFGFVLFLVLWLMHFMAIIYTRLHLNKKATDKQPYSKLPGVSLLKPLKGVDPNLINNLETFFELDYPKYEVLLCVQDHDDPAIDVCKKLLGKYPNVDARLFIGGKKVGINPKINNLMPGYEVAKYDLIWICDSGIRVIPDTLTDMVNQMTEKVGLVHGLPYVADRQGFAATLEQVYFGTSHPRYYISANVTGFKCVTGMSCLMRKDVLDQAGGLIAFAQYIAEDYFMAKAIADRGWRFAMSTQVAMQNSGSYSISQFQSRMIRWTKLRINMLPATIICEPISECFVASLIIGWAAHHVFRWDIMVFFMCHCLAWFIFDYIQLRGVQGGTLCFSKLDYAVAWFIRESMTIYIFLSALWDPTISWRTGRYRLRCGGTAEEILDV","specificity (specific activity) relative to sample produced with GalCer (5%), cholesterol (5%), egg PC (90%)",[3],approximately 2.7 times higher
